Measured values taken from the DeepSol protein solubility set.

assay: soluble on expression in E. coli; label from the status in PepcDB or PDB records

Q: With “MPANIDGTLIKDPMVLNIMLFGSDERPGETGYGRSDTMMLLSIDNRNKKLKLTSFMRDTYVNVPEWGDTKLTHAYSYGGPALAIETIERNFGIDIDRYAVVYFDTFPGIVDTLGGIEVEMTQTEADVMNESVGPEFANFTEGKNTLNGATALVYVRIRYGVGDDFGRTQRQRDFMLQVLNKVKGTRDVGTLLTLLTKILPGVTTNISVNEMAGLAGGAISSYMDYPMYQFRLPEDGAFSAVDVDAGNVLAIDDWDAAREHLQRFIYEDTVDPIYGPLEHHHHHH” as the sequence, how does the “soluble on expression in E. coli” value read?
A: soluble

Q: With “MNMPLMIDLTNKNVVIVGGGVVASRRAQTLNQYVEHMTVISPTITEKLQNMVDNGVVIWKEKEFEPSDIVDAYLVIAATNEPRVNEAVKKALPEHALFNNVGDASNGNVVFPSALHRDKLTISVSTDGASPKLTKSIMAELEALYPPSYSSYIDFLYTCRQKIKVLDITYNEKQQLLSQIVSQEYLNHDKQAQFLAWLDVR” as the sequence, how does the “soluble on expression in E. coli” value read?
A: not soluble

Q: Which “soluble on expression in E. coli” value does the source give for “MAHHHHHHMLETQHLHTHSGRLIPPPPRRTPRRKSSVCRTPTRRHNPAESGLSASSKTTRSDVYECRMAPVRGRRESHDSTPGRPRAPEDVNYARGRSMNERPAPSKPQCAIPSKNGRLEESRASTLAVDRERFSQTRWGRSDEIISQSPLAGRSHSLREGEFCDPQALTMRLRHSLSRGYSPQCGHPTQAVVGTELAPPMPRLQGAYGTSKNRYRKTIERFIECQPTNTQKEMQSMLEEYRGRENELCEALSVAYSDSWEASVRGNDTIIQSHKNDNCSKFALNESPGMPEMKDFPRVGNGKGHFDSMNNGECNHNATAENHRQRMTKPTSSSHSTPSRFQDSHQNVDCLRSFSDVATPRRNEGINLSKSAEKERYDEDTSPHLRNGSSGGVNVPLSLGIILEQGETSPRSGGMLTPPIPADLLAR” here?
A: not soluble

Q: With “MTHPRDSIALTSDSLVLRFLSESGIPISDNNKVRLLKSGREKFIDLFSAIRDAKHHIHLEYFNFRNDSIANALFDLLAEKVKEGVEVRAMFDAFGNWSNNKPLKKRHLKKIREQGIEIVKFDPFTFPYINHAAHRDHRKIAVIDGEVAYTGGMNIADYYINGLPKIGTWRDMHMRIEGDAVNDLQEIFLTIWNKETKQNIGGEAYFPKHKEQSDSTNVVVAIVDRTPKKNSRMLSHA” as the sequence, how does the “soluble on expression in E. coli” value read?
A: not soluble

Q: For “MMYIDNEVLEKMIMTMVEGFNRLEKKLDRMNRLKDCLDGDTLLDNCDLAQLLGVTQRTIARYREKGLIRYYQTDENGKNFYRSSEIQDFLRHRGKKK”, which “soluble on expression in E. coli” value is on record?
A: not soluble

Q: With “MKPRDINKLIASKIFGYEIKDDNIIKDGRYRLGIPLYSQNIESAWQVVEKLEYDVKVTKTDLKPKYQVHVFVPGGVKMVFAETAPMAICKGALASVDIELQD” as the sequence, how does the “soluble on expression in E. coli” value read?
A: soluble

Q: With “MGSDKIHHHHHHMELKSAEEKSLYYRNKIKEVIDEVGKVVVGQKYMINRLLIGICTGGHILLEGVPGLAKTLSVNTLAKTMDLDFHRIQFTPDLLPSDLIGTMIYNQHKGNFEVKKGPVFSNFILADEVNRSPAKVQSALLECMQEKQVTIGDTTYPLDNPFLVLATQNPVEQEGTYPLPEAQVDRFMMKIHLTYLDKESELEVMRRVSNMNFNYQVQKIVSKNDVLEIRNEINKVTISESLEKYIIELVFATRFPAEYGLEAEASYILYGASTRAAINLNRVAKAMAFFNNRDYVLPEDIKEVAYDILNHRIILNYEAEAEGISTRQIIETILRKVNITKA” as the sequence, how does the “soluble on expression in E. coli” value read?
A: not soluble

Q: Which “soluble on expression in E. coli” value does the source give for “MMEDNKMTESEMKFRDTTIRNFFDKEDRLKSIPGQKKKKLVLLEHLISKLNAENQYTEKEINTFIKQYHDDFCTIRREFIVQGFMNREDNMYCINGREVWTKWEELK” here?
A: not soluble

Q: For “MVTNRVVFLTGAASGIGYEMGNTFAKEGAKVVITDRLEERAKEAAEQLQKEGFQAIGLKCDVTSEEEIEASISQTVNHFGSLDILINNAGMQHVSPIEDFPTEKFELLIKIMQIAPFIAIKHAFPIMKKQKYGRIINVASINGLVGFAGKAAYNSAKHGVIGLTKVAALEGATHGITVNALCPGYVDTPLVRNQLQDLATTRNVPLENVLEDVIYPLVPQKRLLQVQEIADYAMFLASEKAKGITGQAVVIDGGYTAQ”, which “soluble on expression in E. coli” value is on record?
A: not soluble

Q: With “MTLSSKTTKKNTSQHKHPRYVDCDNCSMRAICQPIGADNQAIDLTSNYLTRRVEVSTEQSSSLPLNQSAGVALFEQASPLTAIFAVCSGTFKLCQKNDDGLDRIVGFRFPGELIGEDALFLEVYNYSAVALGDNSVCEVYVDSLSACSQLAPELQQNLIQLLTKQSYEQQRNAHAITGKKSADCLLAAFLLNICQRNAKHSGNETEIELTISRQDIASFLGMRRETLSRLLSKFQHEQLISLNGKQLSLLSLNHLKQLSNQ” as the sequence, how does the “soluble on expression in E. coli” value read?
A: not soluble

Q: For “MTQIPPSRLHSPLDRLLVEAQRALDTVFGNPPAERPNPAGDTPDAALAPAQRQHAAGLMRINHVGEVCAQGLYFGQAAVARDDHTRQHLLTAAQEETDHLAWCADRLRELESRPSLFNPLWYAGSYALGAVAGLRGDDWSLGFVVETERQVEAHLDEHLETLPETDQRSRAILRVMKIDEARHADHAEQAGARILPPPIPSAMALASKLMKTIAYRFLEHHHHHH”, which “soluble on expression in E. coli” value is on record?
A: not soluble

Q: For “SKEGSVAPKERINIKYIPATGDAQAEVELPLKTLVVGDFKGHAEQTPLEERATVTVDKNNFEAVMRESELKITATVKNKLTDDENAELPVELNFKSLADFAPDAVASQVPELKKLIELREALVALKGPLGNIPAFRERLQSLLNSEESREKLLAELNLL”, which “soluble on expression in E. coli” value is on record?
A: not soluble

Q: For “SLGKILSKTAIAIVLASGLLSACTSTTDVFHNGYVMDDQSLQLIPEGSSREQVLLTMGTPSTTATFGNEVFYYISQKRVRRAAFLKPSLVEQNILAIYFNKDGVIERKANYTLQDGKVFDSISRTTPTGGKDLTFLQQLLSGGTSGANIAKS”, which “soluble on expression in E. coli” value is on record?
A: soluble

Q: Which “soluble on expression in E. coli” value does the source give for “MLTPMFCLAHISDMHLSPLPKPSFFELFGKRLTGYLNWQKKRKGQMATNTLETLIEALKKKNPDHLVISGDLVNLALDKEFEQARNWLLNQGQPQNISLTFGNHDAYVRGAFQKACTLFQPWITGDFPQKNAPPFPYIRIRKNVAIIGASSAIATPPFQASGYFGKMQAQALSQLLNEAARRNLFRVIMIHHPPFHHATSWHKKLWGIERFLEVIKHHGCELILHGHTHLPTLNIIKGKMGKIPIVGVASAAQAFGDTPPPAGFNFFSIEQFNQQWHCQLQRYSLINQNNEVACTETIDLLEHHHHHH” here?
A: not soluble

Q: For “MADNWGSENVVADAAPATEAPEVALFGKWSLQSVNVSDISLVDYIPVKEKSAKYLPHSAGRFQVRRFRKAACPIVERLANSLMMHGRNNGKKLMTVRIVKHAFEIIYLLTGENPVQVLVNAVINSGPREDSTRIGRAGTVRRQAVDVAPLRRVNQAIWLLCTGAREAAFRNVKTIAECLADELINAAKGSSNSYAIKKKDELERVAKSNR”, which “soluble on expression in E. coli” value is on record?
A: not soluble

Q: With “MGSDKIHHHHHHAAGQPRLVKSLVPDMPSQAPDYFCTWNLQGYVASYKSTELTRAAMTEDYLFGDGLYQNWVDCYPAIRKDLYFVMDDSWDIPKDVNDSPNLYLGCVELSSDRFPSFRGDAVERLKQLSEQIKSKGWKGVGGWICAQKAETHAAIPEEEYWKQRIKAANAAGFDYWKVDWGKEDRNGEWRRKLTAIGKRYAPHLYIEHALRNEFIEFSDVFRTYDVENITAQPITIRRICDLLPYKTVEGAKGIINCEDEPYIAVGLGCAIGVMRHPFAETLPDGAQDFVFPPVGRDIKRRLDEVVRGVRWHRIAEPFAVGYGTFAIDSVKLTDHWILQENETWNKGRTVGADVTADAPARVARNMKLPEVSGAPLSVCPFVLASRYPNGAVAVSTIGRNVGREYVTEKVAVSISVDRWDIPIGLFGYFKEVTMVFPSPLKTGKHTVFAQDLAGENPVDITSNVVIKDNRLIIPGEVISRVGLMNASEGDCSDPGMVIRVM” as the sequence, how does the “soluble on expression in E. coli” value read?
A: not soluble

Q: With “MSRPKAIVRHGKRDTIVALLGWAGAVDRNVEKYAGIYQKKGYTTVQFTALAAVKGWGTKDGRNVDHLASTLDSVLINPSNRLVFHVFSMNGFIALTSLDSQFPELKAIEKCDGIFMDSCPACFSFSIENMQKHALVMNHVYDQLIKNSNFVLGNFYKVYKKWETARFGYQMIMDTMSIKAGLCTIEEANPFFYLLNHPHLPPILTSIFSDNDIVCSADEINLFNECAAKKSDKKRQIMATRLKDTAHVEHFRKYPKLYLEKMDEFLQKVEKLRNGGNSKL” as the sequence, how does the “soluble on expression in E. coli” value read?
A: not soluble

Q: For “SGEKSENCGVPEDLLNGLKVTDTQEAECAGPPVPDPKNQHSQSKLLRDDEAHLQEDQGEEECFHDCSASFEEEPGADKVENKSNEDVNSSELDEEYLIELKKNMSDEEKQKRREESTRLKEEGNEQFKKGDYIEAESSYSRALEMCPSCFQKERSILFSNRAAARMKQDKKEMAINDCSKAIQLNPSYIRAILRRAELYEKTDKLDEALEDYKSILEKDPSIHQAREACMRLPKQIEERNERLKEEMLGKLKDLGNLVLRPFGLSTENFQIKQDSSTGSYSINFVQNPNNNR”, which “soluble on expression in E. coli” value is on record?
A: soluble

Q: With “AARPRKNNVSVPNLYPLYSRKVNKVYWRYKHPVTGKFHALGTNEAEAIAIATEANTRLAEQRTRQILAISDRIATSKGKAITTSTWLDRYQAIQDDRLKSGDIRLNTYKQKAKPVSLLRERAGMKLISAVDVRDIAQLLDEYIAAGRPRMAQVVRSVLIDVFKEAQHYGEVPPGYNPALATKQPRRKITRQRLSLEEWKKIFDIADATHRYMGNAMLLALVTGQRLGDISRMKFSDIWDDHLHVIQEKTGSKIAIPLSLRLNAINWSLRDVVARCRDYAVSAYLVHFFRSTSQAERGAQVKANTLTMNFSKARDLARIDWGEGSPATFHEQRSLSERLYKEQGLDTQKLLGHKTQQQTDRYHDDRGKGWSKVAL” as the sequence, how does the “soluble on expression in E. coli” value read?
A: not soluble

Q: Which “soluble on expression in E. coli” value does the source give for “MSYFSHQDPNNPESHINFTMAQMEIQRWTLLISNPEADASTLVMELKTVTGESKHFINQAINAMWALMKLPILRVVVETHFHVRIPYLARIMQAVKQAKPELWDELDHRIAEKLTPRIAGQALMEASALAGLITRWIKELDPTFTGKKRGPKGSDGTLTFRHVDGRTYISGNIDGVTGKLFQKALEKVKQKGEDLARALVTFLAGRTKVKIVSAVYTPLVGGVSWIPGVGFLSQEESRKLGKTASKVIDLDTIATRVENGYTPSPELRLYVMGRDGTCRHPGCTVSADNCQIDHVIPFGEGGLTVAWNLQCLCAHHHNMKTDGRIQAAIDSMGRVAWIGPCNRTVVTEPVGPLAQEMPTGQWGQTLEARMEKTFEKLRSSLEVLDDLEHHHHHH” here?
A: soluble

Q: For “MGSDKIHHHHHHMKVLNLLSAGGIGGIEQLCSNIAKYANYDNTFCFMFEDGQIYKEMKKSGADVISFAECSSKKISKKRWESLCELAEKADIIVTHHCTIALHIYYCALKKRFKNKKFVMTIHSCFDPELNYNYGSWIKNKIAKWNIEEALKISDKIIFVSEAGRRSYLDNFNIDVTKTKVIYNGVEVSAISIDSIKLENNYTRITYIGRVEKIKGLDLFVCALKKLLNDDSNIKVWIIGDGSFRNELEMLVQKLDLTGVIEFTGAKRNIGDYLRKTDLFIYPSTCQEVFGISIVEAMSYGVPCVANNVGGIPEIIENDYNGFITSKTNDDELYKCMYKFIKLDPKLITQMRNNCLLTAEKFSINCTIDNLEKTLKGMM”, which “soluble on expression in E. coli” value is on record?
A: not soluble

Q: For “MAPTPKFGPKKIQNVSAVSCSVKKYQASTSSPVPILNVQERVELRKLEQMLPVSPKNCDPADVVLRAASYIDQLVATVQARVKNGTLPMGALSSLPPQYSKPIKSSRRTVSSKKSRRSMEKKR”, which “soluble on expression in E. coli” value is on record?
A: not soluble

Q: Which “soluble on expression in E. coli” value does the source give for “KQKGNYGEYLADDNLINNPKLKEAGYDLERIGGKVPTSPDDKITKGIDGIYINKNPNSNIKYVIDEAKFGKAGLSAKTRDGKQMSDSWLMGSRSRDNRILKALNNNEELADDILEALANNQVERILSKVDINGEVTTYRLDSEGNIIGLWP” here?
A: soluble
